According to the nanobody polyreactivity screen of Harvey et al. (2022):

Assay: yeast display, Sf9 membrane polyspecificity reagent, FACS + sequencing; frameworks hold sequencing errors
Outline: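 Polyreactivity labels are assigned by the sorting gate from which each nanobody was recovered. The gates were low and high (top ~1%), set on anti-HA fluorescence for expression and streptavidin fluorescence for reagent binding. Before sorting, galactose-induced (36–48 hours) yeast display cells were stained for 1 hour at 4 °C with 10% biotinylated, detergent-solubilized Sf9 membrane reagent.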

Sequence	polyreactivity (PSR sort gate)
QVQLVESGGGLVQAGVSLRLSCHASGSIFYYNTMGWYRQSPGKERELVATISSDGGTNYADSVKGRFTISRDNAKYTVYLQMNSLKPEDTAVYYCAKDGSNRLALPAWDYNYWGQGTQVTVSS	low polyreactivity
QVQLVESGVGLVQAGGSLRLSCAASGFIFCGYAMVWYRHAPGKERELVAAISWSGDNTYYADSVKGRFTISRDNAKNTVYFQMNSLKPEDTAVYYCAADSYGQEYDYWGQGTQVSVSS	low polyreactivity
QVQLVESGGGLVQAGGSLRLSCAASGRIFNYYAMGWYRQAPGKERELVAVISRTGVRTHYADSVKGRFTISRDIAKNTVYLQMNRLKPEDTAVDYCNADSYVFRYDYWGQGSQVTVSS	high polyreactivity
QVQLVESGGGLVQAGGSLRLSCAASGRTFRANAMGWYRQAPGKERELVAAISQRGGNTYYADSVKGRFTISRDKAKNTVYIQMNSLKPEDTAVYYCAADITTYRRGRYEYEYWGQGTQVTVSS	high polyreactivity
QVQLVESGGGLVQAGGSLRLSCAASGFIFARYAMGWYRQAPGKERELVAAISSSGSSSYYADSVKGRFTISRDNAKNTVYLQMNSLKPEDTAVYYCAAKDSKYRNSPLYNYWGQGTQVTVSS	high polyreactivity
QVQLVESGGGLVQAGGSLRLSCAASGRTFTRYTMGWYRQAPRKERELVAAITRGGTTYYADSVKGRFTISRDNAKNTVYLQMNSLKPEDTAVYYCNKRKQQSSDGYGYWGQGTQVTVSS	high polyreactivity
QVQLVESGGGLVQAGGSLRLSCAASGSISVANAMGWYRQAPGKERELVAAITDSGDDTYYADSVKGRFTISRDNAKNTVYLQMNSLKPEDTAVYYCAVEAWSVPPYDYWGQGTIVTVSS	low polyreactivity
QVQLVESGGGLVQAGGSLRLSCAASGRIFYTNGMGWYRQAPGKERELVAAISYNGGRTYYADSVKGRFTISRDNAKNTVYLQMNSLKPEDTAVYYCNKRGDYQFHFDYWGQGTQVTVSA	low polyreactivity
QVHLVESGGGLVQAGGSLRLSFAASGSTFEDNAMGWYRQAPGKERELVAGISTNGGSTSYADSVKGRFTISRDNAKNTVYLQMNSLKPEVTAVYYCAKGLYVQFDYWGQGTQVTVSS	low polyreactivity
QVQLVVSGGGLVQAGGSLRLSCAASGSTFSLNAMGWYRQAPGKERELVAVITRGTSTYYADSVKGRFTISRDNAKNTVYLQMNRLTPEDNAVYYCAAAVWWSVVWAARYGYWGQGTQVTVSS	low polyreactivity
QVQLVESGGGLVQAGGSLRLSCAASGIIFRYYAMGWYRQPPGKERELVASISRGGSTYYADSVKGRFTISRDNAKNTVYLQMNSLKPEDTAVYYCAADVYPVYLYGYEYWGQGTQVTVSS	high polyreactivity
QVQLVESGGGVVQAGGSLRLSCAASGSTMGYYAMGWYRPAPGKERELVATITRSGGNTYYADSVKGRFTISRDNAKNTVYLQMNSLKPDDNAVYYCAARRLYGSQRGYWGHGTQVTVSS	high polyreactivity
QVQLVESGGGLVQAGGSLRLSCAASGSIIPYYVMGWYRQAPGKERELVAAITSGGSTYYADSVKGRFTISRDNAKNTVYLQMNSLKPEDTAVYYCAVRWYPLYAPYWRDYWGQGTQVTVSS	high polyreactivity
QVQLVESGGGLVQAGGSLRLSCAASGSTFFTYTMGWYRQAPGKERELVATITTSGGSTYYADSVKGRFTISRDNAKNTVYLQMNSLKPEDTAVYYCAADWDPGYYVQYGYDYWGQGTQVTVSS	low polyreactivity
QVQLVESGGGLVQAGGSLRLSSAASGRTFRWYTMGWYRQAPGKERELVAAISYSGGRTYYADSVKGRFTISRDNAKNTVYLQMNSLKPEDTAVYYCNKRGPSYWRYVETSEYYYWGQGTQVTVSS	high polyreactivity
QVQLVESGGGIVQAGGSLRLSCAASGITSYFNAMGWYRQAPGKERELVAITWNGGSTYYADSVKGRFTITRDNAKNTVYLQMNSLKPEDTAVYYCAARYRRYNRKYDYWGQGTQVTVSS	high polyreactivity
QVQLVESGGGLVQAGGSLRLSCPASGFTFYGYAMGWYRQAPGKERELVAAIRYSGGSTYYADSVKGRFTISRDNAKNTVYLQMNSLKPEDTAVYYCNKRLIYYRGTYYSRRFDYWGQGTQVTVSS	high polyreactivity
QVQLVESGGGLVQAGGSLRLSCAASGRTSIWNSMGWYRQAPGKERELVASISWSGGSTYYADSVKGRFTISRDNAKNTVYLQMNSLKPEDTAVSYCAKTAYFLVFNEHLHNKRYDSWGQGTQVTVSS	low polyreactivity
QVQLVESGVGLVQAAGSLRLSCAASGFIFWVNAMGWYRQAPGKEREFVAAIRSSGGNTYYADSVKGRFTISRDNAKNTVYLQMNSLKPEDTAVYYCAADSVIVTYESDYWGQGTQVTVSS	low polyreactivity
QVQLVESGGDLVQAGGSLRLSCDASGRTCSANGMGSYRQSTGKERELVAAITRSGGITYYADSVKGRFTISRDNAKNTVYLQMNSLNPEDTADYYCAASVYSLSRRSWMDYWGQGTQVTVST	low polyreactivity
QVQLVESGGGLVQAGGSLRLSCAASGSTFDIYAMGWYRQAPGKERELVAAISVSDVDTYYADSVKGRFTISRDNAKNTVYLQMNSLKPEDTAVYYCNAERFWPWDYDYWGQGTQVTVSS	high polyreactivity
QVQLVESGGGLVQAGGSLRLSCAASGIIFQGNAMGWYRQAPGKERELVAAISSGGSTYYADSVKGRFTISRDNAKNTVYLQMNSLKPEDTAVYYCNAGAYVRYDYWGQGTQVTVSS	low polyreactivity

Sequence	polyreactivity (PSR sort gate)
QVQLVESGGGLVQAGGSLRLSCAASGRTFGWYTKGWYRQAPGKERELVAAISRSGTSTYYADSVKGRFTISRDNAKNTVYLQMNSLKPEDTAVYYCAAGPWAYGRRHSYYSYGYWGQVTQVTVSS	high polyreactivity
QVQLVESGGGLVQAGGSLRLSCAASGLIFYGYVMGWYRQAPGKERELVAGISRNSGSTYYADSVKGRFTISRDNAKTTVYLQMNSLKPEDTAVYYCAKAYYRRYAAPGYDYWGQGTQVTVSS	low polyreactivity
QVQLVESGGGLVQAGGSLRLSCAASGGTFSWYAMGWYRQAPGKERELVAAITARGGSTYYADSVKGRFTISRDNAKNTVYLQMNSLKPEDTAVYYCNKRTRSLVRYNSGGYSVGYWGQCTQVTVSS	high polyreactivity
QVQLVESGGGLVKAGCSLRLICAASGSIFYQYAMGWNRQAPGNVRELVAAITRRGSRTYYADSVKGRFTISRDNAKNTVYLQMNSLKPEDTAVYYCAAGSFYGIYYYRTDDYWGQGTQVTVSS	high polyreactivity
QVQLVESGGGLVQAGGSLRLICAASGSTLPGYVKGWYRQAPGKERELVAAITKSGGSTYYADSVKGRFTISRDNAKNTVYLQMNSLKPEDTAVYYCAVGVKAQIAGDYWGQGTQVTVSS	low polyreactivity
QVQLQDSGGGLVQAGGSLRLSCAASGTIFWYSDLGWYRQAPGKERKFVAGIGFGSNSNFADSVRGRFTISRDNAKNTVYLQMNSLKPEDTAVYYCAAVWFDYSTHRYWGQGTQVTVSS	high polyreactivity
QVQLVESGGGLVQAGGSLRLSCAASGRTLPYNAMAWYRQAPGKESELVAAITWSGGRTYYADSVKGRFTISRDNAKNTVYLQMNSLKPEDTAVYYCAAGKSSYGKPKYYYWGQGTQVTVSS	high polyreactivity
QVQLVESGGGLVQAGGSLRLRCAASGSIMGRYAMGWYRQAPGKERELVAAITSSGTRTYYPDSVKGRFTISRDNANNTVYLQMNSLKPEDTAVYYCAAYLAITRSYYIVPYDYWGQGTQVTVSS	high polyreactivity
QVQLVESGGGLVQAGGSLRLSCAASGSTFHPYAMGRYRQAPGKERELVAAITWRVGSTYYADSVKGRFTISRDNAKNSVYLQMNSLKPEDTAVYYCAVSYLSTLGRSRYDYWGQGTQVTVSS	low polyreactivity
QVQVVESGGGLVQAGGSLRLSCAASGSTFPVYAMGWYRQAPGKERELVAAISRSGASTYADSVKGRFTISRDNAKNTVYLQMNSLKPEDTAVYYCNKDPGNVSSYTGGGYWGQGTQVTVSS	low polyreactivity
QVQLVESGGGLVQAGGRLRLSCAASGSIFIGYAMGWYRQAPGKERELVATISGSGGSTYYADSEKGRFTISRDNAKNTVSLQMNSLKPEDSAVYYCAAVSVSSWYDYWGQGTQVTVSS	low polyreactivity
QVQLVESGGGLVQAGGSLRLSCAASGSTFVSYAMGWYRQAPGKERELVAGITRRGGTTYYADSVKGRFTISRDNAKNTVYLQMNSLKPEDTAVYYCARYSLYTGYRRYPLDYDYWGQGTQVTVSS	high polyreactivity
QVQLVESGGGLVQAGGSLRLSCAASGSIFSINTMGWYRQPPGKERELVAAITRSGSGTYYADSVKGRFTISRDNAKNTVYLQMNSLKPEDTAVYYCAKPAGARLGYWGQGTQVTVSS	low polyreactivity
QVQLVESGGGLVQAGGSLRLSCAASGSIFRNYAMGWYRQAPGKERELVSAITRGGGSTYYADSVKARFTISRDNAKNTVYLQMNSLKPEETAVYYCAAVRVFQYKYDRFNYWGQGTQVTVSS	high polyreactivity
QVQLVESGGGLVQAGGSLRLSSAASGRIFRKYAMGWYRQAPGKERELVAAISGSGVSTYYADSVKGRFTISRDNAKNTVYLQMNSLKPEDTAVYYCNARIILRGYKSYRYDYWGQGTQVTVSS	high polyreactivity
QVQLVESGGGLVQAGGSLRISCAASGSTFSQYTMGWYRQAPGKERELVAAITWSGGRTYYADSVKGRFTISRDNAKNTVYLQMNSLKPEDTAVYYCNRDISGSSGGELDYWGQGTQVTVSS	low polyreactivity
QVQLVETGGGLVQAGGSLRLSCAASGRIFWWYAMGWYRQAPGKERELVAAISTGSRTYYADSVKGRFTISRDNAKNTVYLQMNSLKPEDTAVYYCVADGLYSVSRSSIFEYWGQGTQVTVSS	low polyreactivity
QVQLVESGGGLVQAGGSLRLSCAASGFIFGFYAMGWYRQAPWKERELVAAITSDGGTYYADSVKGRFTISRDNAKNTVYLQMNSLKPEDTAVYYCAADVLYEVFSWYVGYDYWGQGTQVTVSS	low polyreactivity
QVQLVESGGGLVQAGGSLRLSCAASGRPFASYALGWYREAPGKERELVAVITRGVRTYYADSVKGRFTISRDNAKNTVYLQMNSLKPEDTAVYSCAKERYNANYDTSLYDYWGQGTQVTVSS	low polyreactivity
QVQLLESGGGLVQAGGSLRLSCAASGFIFAKNAMGWYRKAPGKERELVAAISASGGRTYYADSVKGRFTISRDNAKNTVYLQMNSLKPEDTAVYYCAARRDGRSGSYNYWGQGTQVTVSS	high polyreactivity
QVQLVESGGGLFHAGGSLRLSCAASGRIFYNYAMGWSRQAPGKERELVAAISGSGGSTYYADSVKGRFTISRDNAKNTVYLQMNSLKPDDTAVYYCSTSGPQYYSRNFDYWGQGTQVTVSS	low polyreactivity
